Assay results: patent US7795221B2, “Linear natriuretic peptide constructs” (Palatin Technologies, Inc., priority 2006, dated 2010)
Square brackets hold non-standard residues; d marks the D form. Ends that are not written are not given here. Peptide text beside a SMILES is read from it. * marks the point of attachment. Piperazin2one(3S-Bu,6R-CO) = CCCC[C@@H]1NC[C@H](C(=O)*)NC1=O; X1 = N=C(N)NCCC[C@H]1C(=O)N[C@@H](C(N)=O)CN1*; keto‑piperazine surrogate = not defined here; Nle = CCCC[C@H](N)C(=O)O

T1: human natriuretic peptide receptor A (human, UniProt P16066 33-1061)
T1 sequence (looked up): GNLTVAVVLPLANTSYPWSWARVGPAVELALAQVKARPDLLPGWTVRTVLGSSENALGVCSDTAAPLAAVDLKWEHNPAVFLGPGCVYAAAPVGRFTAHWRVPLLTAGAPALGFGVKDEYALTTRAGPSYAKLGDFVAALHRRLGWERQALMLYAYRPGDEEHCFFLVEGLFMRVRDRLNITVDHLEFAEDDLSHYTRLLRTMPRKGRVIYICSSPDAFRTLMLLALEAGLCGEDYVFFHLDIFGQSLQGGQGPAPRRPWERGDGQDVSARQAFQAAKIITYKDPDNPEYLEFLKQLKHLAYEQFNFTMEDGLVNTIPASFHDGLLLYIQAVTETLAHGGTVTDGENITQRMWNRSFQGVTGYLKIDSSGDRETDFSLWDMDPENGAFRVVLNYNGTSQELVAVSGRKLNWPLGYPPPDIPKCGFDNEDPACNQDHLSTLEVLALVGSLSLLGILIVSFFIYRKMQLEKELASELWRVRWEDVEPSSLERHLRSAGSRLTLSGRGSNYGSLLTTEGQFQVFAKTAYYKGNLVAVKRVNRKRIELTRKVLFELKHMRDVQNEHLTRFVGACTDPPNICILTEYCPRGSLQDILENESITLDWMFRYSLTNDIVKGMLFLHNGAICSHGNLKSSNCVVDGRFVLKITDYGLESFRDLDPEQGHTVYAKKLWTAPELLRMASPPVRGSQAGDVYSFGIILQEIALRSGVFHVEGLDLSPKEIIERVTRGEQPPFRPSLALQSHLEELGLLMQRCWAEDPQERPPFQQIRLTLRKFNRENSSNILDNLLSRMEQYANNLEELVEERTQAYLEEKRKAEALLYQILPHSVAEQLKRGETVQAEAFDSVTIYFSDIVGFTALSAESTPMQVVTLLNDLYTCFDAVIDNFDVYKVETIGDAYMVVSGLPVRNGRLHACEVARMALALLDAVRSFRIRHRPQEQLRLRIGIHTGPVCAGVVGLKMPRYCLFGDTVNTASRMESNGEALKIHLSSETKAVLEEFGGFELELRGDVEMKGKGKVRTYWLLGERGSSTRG


Key:
[1] = set-up: species or system Sprague-Dawley rats; conditions: rat, in vivo, iv, 2 mg/kg
Method: . […] The total run time was 6 minutes.

[2] = molecular target: T1, human natriuretic peptide receptor A; assay: cell-based or functional assay
[3] = molecular target: T1, human natriuretic peptide receptor A; assay: competitive inhibition of [125I]-ANP binding to HEK-hNPRA membrane homogenates
Method: Competitive binding assay. A competitive inhibition binding assay was performed using crude membrane homogenates prepared from HEK-hNPRA cells. To prepare membrane homogenates, cells were rinsed with phosphate-buffered saline and incubated for 15 minutes at 4° C. in hypotonic lysis buffer (10 mM Tris, pH 7.4+5 mM EDTA). Cells were transferred from plates to polypropylene tubes and homogenized. Homogenates were centrifuged at 25,000×g for 20 minutes. Pellets were resuspended in buffer consisting of 50 mM Tris (pH 7.4) and 1 mM EDTA, homogenized and centrifuged at 25,000×g for 20 minutes. Pellets were resuspended in buffer consisting of 100 mM Tris (pH 7.4) and 10 mM MgCl_2 and stored at −80° C. until needed. On the day of an assay, homogenates were thawed and homogenized. […] Assays were stopped by addition of cold wash buffer (phosphate-buffered saline) followed by filtration using a vacuum manifold. Bound radioactivity was determined using a gamma counter. […] Data were analyzed using GraphPad Prism® curve-fitting software.

Molecule | AUC [1] | Vd [1] | clearance [1] | half-life [1] | EC50 (accumulation of intracellular cGMP) [2] | Ki [3]
[keto‑piperazine surrogate]AHFGGR[Nle]DRISAY[keto‑piperazine surrogate] (reading uncertain; also: further groups not given here, Linear synthetic construct) [Construct 1-30] |  |  |  |  | 80.5 nM | 8.7 nM
[keto‑piperazine surrogate]AHFGGR[Nle]DRISAY[keto‑piperazine surrogate] (reading uncertain; also: further groups not given here, Linear synthetic construct) [Construct 1-49] |  |  |  |  | ~12 nM | 0.2 nM
[keto‑piperazine surrogate]AHFGGR[Nle]DRISAYR (reading uncertain; also: further groups not given here, Linear synthetic construct) [Construct 1-9] |  |  |  |  | 550 nM | 14.5 nM

Now from value to molecule:

AUC [1] | Vd [1] | clearance [1] | half-life [1] | EC50 (accumulation of intracellular cGMP) [2] | Ki [3] | Molecule
0.139 µM·h | 0.6 L/kg | 131 mL/min/kg | 6 min |  |  | CCCC[C@@H]1NC[C@H](C(=O)N[C@@H](C)C(=O)N[C@@H](Cc2c[nH]cn2)C(=O)N[C@@H](Cc2ccccc2)C(=O)NCC(=O)NCC(=O)N[C@@H](CCCNC(=N)N)C(=O)N[C@@H](CCCC)C(=O)N[C@@H](CC(=O)O)C(=O)N[C@@H](CCCNC(=N)N)C(=O)N[C@H](C(=O)N[C@@H](CO)C(=O)N[C@@H](C)C(=O)N[C@@H](Cc2ccc(O)cc2)C(=O)N2C[C@H](C(N)=O)NC(=O)[C@@H]2CCCNC(=N)N)[C@@H](C)CC)NC1=O [Construct 1-30] ({Piperazin2one(3S-Bu,6R-CO)}-AHFGGR[Nle]DRISAY-X1)
 |  |  |  | 340 nM | 88.5 nM | [Nle]AHFGGR[Nle]DRISAY[keto‑piperazine surrogate] (reading uncertain; also: further groups not given here, Linear synthetic construct modelled on mini-ANP) [Construct 1-16]
